Test results: article PMC7600612 (2020)

B1: FGF8 (protein)
chain: QEGPGRGPALGRELASLFRAGREPQGVSQQHVREQSLVTDQLSRRLIRTYQLYSRTSGKHVQVLANKRINAMAEDGDPFAKLIVETDTFGSRVRVRGAETGLYICMNKKGKLIAKSNGKGKDCVFTEIVLENNYTALQNAKYEGWYMAFTRKGRPRKGSKTRQHQREVHFMKRLPRGHHTTEQSLRFEFLNYPPFTRSLRGSQRTWAPEPR

Assays:
[1] = biological target: Human FGF8b (fibroblast growth factor 8, isoform b) (human); assay: SPR; Biacore X100; FGF8b covalently attached (amine coupling, 295 RU) to a matrix-free C1 chip; FGFRL1 polypeptides injected at 3.125-50 nM in HBS-EP+ (10 mM HEPES, 150 mM NaCl, 3 mM EDTA, 0.05% P20, pH 7.4), 30 μL/min, 120 s association, 240 s dissociation; global kinetic fit to a 1:1 model
FGFR1 (Homo sapiens) = FGFR1 (Homo sapiens) (UniProt P11362); details: cited from earlier work
FGFRL1 (Homo sapiens) = FGFRL1 (Homo sapiens) (UniProt Q8N441); details: cited from earlier work
FGFR2 (Homo sapiens) = FGFR2 (Homo sapiens) (UniProt P21802); details: cited from earlier work
FGFRL1 Ig2 = biological target: T1, FGFRL1 Ig2 (Homo sapiens, UniProt Q8N441); assay: SPR
T1 chain: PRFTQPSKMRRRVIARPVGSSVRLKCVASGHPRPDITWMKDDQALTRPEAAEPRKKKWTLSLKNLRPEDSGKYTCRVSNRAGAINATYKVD

FGFR2 (Homo sapiens), sequence (P21802 22-377): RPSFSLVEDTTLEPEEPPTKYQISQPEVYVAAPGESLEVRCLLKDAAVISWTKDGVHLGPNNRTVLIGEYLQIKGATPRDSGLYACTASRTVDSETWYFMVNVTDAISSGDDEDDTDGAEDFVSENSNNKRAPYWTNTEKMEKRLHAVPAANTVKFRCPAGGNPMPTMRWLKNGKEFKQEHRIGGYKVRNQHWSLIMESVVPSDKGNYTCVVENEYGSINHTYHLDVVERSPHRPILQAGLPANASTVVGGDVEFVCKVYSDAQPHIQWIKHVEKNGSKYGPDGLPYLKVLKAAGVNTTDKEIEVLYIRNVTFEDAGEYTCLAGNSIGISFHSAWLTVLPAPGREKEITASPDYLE
FGFR1 (Homo sapiens), sequence (P11362 22-822 P252R): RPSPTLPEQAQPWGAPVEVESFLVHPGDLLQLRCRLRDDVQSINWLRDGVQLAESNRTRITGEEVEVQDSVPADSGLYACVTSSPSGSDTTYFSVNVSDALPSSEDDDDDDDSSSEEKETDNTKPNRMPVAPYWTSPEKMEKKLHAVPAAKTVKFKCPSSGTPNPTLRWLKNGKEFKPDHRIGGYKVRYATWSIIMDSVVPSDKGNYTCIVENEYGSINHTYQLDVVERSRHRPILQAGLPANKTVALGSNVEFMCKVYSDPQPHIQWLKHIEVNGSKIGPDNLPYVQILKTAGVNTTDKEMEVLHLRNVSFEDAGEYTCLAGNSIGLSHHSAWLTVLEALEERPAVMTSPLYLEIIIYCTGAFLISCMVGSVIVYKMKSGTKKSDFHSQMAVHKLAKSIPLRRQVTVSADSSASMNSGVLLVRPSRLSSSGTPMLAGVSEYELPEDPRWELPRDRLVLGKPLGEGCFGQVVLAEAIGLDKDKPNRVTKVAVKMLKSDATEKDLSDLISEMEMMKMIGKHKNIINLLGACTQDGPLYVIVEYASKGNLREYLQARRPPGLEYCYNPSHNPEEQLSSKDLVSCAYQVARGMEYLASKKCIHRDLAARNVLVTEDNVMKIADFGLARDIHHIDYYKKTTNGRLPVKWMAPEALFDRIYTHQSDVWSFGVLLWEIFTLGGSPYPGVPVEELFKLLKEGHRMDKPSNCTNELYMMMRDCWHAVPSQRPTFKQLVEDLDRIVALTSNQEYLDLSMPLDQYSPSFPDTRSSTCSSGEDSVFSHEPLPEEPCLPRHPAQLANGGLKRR
FGFRL1 (Homo sapiens), sequence (Q8N441 25-378): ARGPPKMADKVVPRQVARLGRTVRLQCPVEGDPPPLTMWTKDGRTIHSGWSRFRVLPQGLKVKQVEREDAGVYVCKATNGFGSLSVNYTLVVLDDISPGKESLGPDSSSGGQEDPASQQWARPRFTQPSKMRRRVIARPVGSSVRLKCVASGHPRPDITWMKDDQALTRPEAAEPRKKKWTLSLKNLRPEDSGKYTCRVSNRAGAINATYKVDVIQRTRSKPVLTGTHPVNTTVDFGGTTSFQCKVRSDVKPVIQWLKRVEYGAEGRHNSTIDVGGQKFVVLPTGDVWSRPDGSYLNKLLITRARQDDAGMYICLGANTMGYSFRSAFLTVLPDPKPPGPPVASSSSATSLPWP

Row | Molecule | Kd [1] [nM] | koff [1] [s⁻¹] | kon [1] [M⁻¹ s⁻¹] | further results
1 | FGFRL1 Ig123 (complete extracellular domain of human fibroblast growth factor receptor-like protein 1) (from UniProt Q8N441 25-359) (domain or fragment) | 3.37 | 0.00126 | 373000 | –
2 | FGF2 (from UniProt P09038) | – | – | – | Kd (FGFR1 (Homo sapiens)): 24 nM
3 | FGFRL1 Ig23 construct (from UniProt Q8N441 25-26; Q8N441 118-357) (domain or fragment) | 2.07 | 0.000806 | 390000 | –
4 | FGF3 (from UniProt P11487) | – | – | – | Kd (FGFRL1 (Homo sapiens)): 4.2 nM
5 | FGFRL1 Ig12 construct (from UniProt Q8N441 25-239) (domain or fragment) | 1.94 | 0.0107 | 5.49e+06 | –
6 | FGFRL1 Ig2 construct (from UniProt Q8N441 25-26; Q8N441 118-239) (domain or fragment) | 1.73 | 0.0092 | 5.32e+06 | –
7 | FGF8 (from UniProt P55075) | – | – | – | Kd (FGFR2 (Homo sapiens)): 130 nM
8 | B1 | – | – | – | Kd (FGFRL1 Ig2): 1.7 nM
